The source of these data is patent US5753621A, “Pulmonary surfactant protein fragments” (Abbott Laboratories, priority 1995, dated 1998).

No end group written: not given here. *: point of attachment. Acm = CC(=O)NC*

Format in all cases: physicochemical
The nature of series [1]: Adsorption capacity, modified Wilhelmy surface balance. The conditions noted are these: measured after three (3) minutes spreading time; peptide 0.5 mg/ml (~2% of solids). As to the method: (§1) Prior to testing for surface activity, the synthetic fragments were admixed with lipids. A lipid mixture consisting of 68% 1,2-dipalmitoyl-sn-phosphatidylcholine (DPPC), 22% egg phosphatidylglycerol (PG) and 9% palmitic acid on a weight basis was prepared by dissolving the lipids in chloroform:methanol (2:1). The required amount of peptide fragment was dissolved in methanol and heated to 60° C. for 10 minutes. The peptide solution was then added to the lipid mixture prewarmed to 45° C. for ten minutes. The samples were mixed at 45° C. by gentle swirling at 100 revolutions per minute on a Buchi rotary evaporator. The organic solvents were then evaporated at 45° C. by increasing the vacuum in 100 torr increments every five minutes until most of the solvent was removed. Final vacuum was between 150-200 torr. Following evaporation, the solids were then suspended in 10% ethanol prewarmed to 45° C. and which was prepared using deionized distilled water. The suspension was gently mixed with vortexing and placed back under vacuum at 600 torr with a repeat of the vacuum ramping process. Final vacuum for the ethanol removal was 50 torr. Following complete removal of ethanol the suspension was diluted with aqueous 0.15M NaCl at 45° C. to yield an admixture with a phospholipid concentration of 25 mg/ml. The peptide/lipid admixtures were formed at final peptide concentrations of 0.5 mg/ml (equivalent to 2% of solids concentration).
A procedure similar to that described by Notter, et al., Pediatric Res. 16, 515-519 (1982) was employed to determine the absorption rate in the absence of diffusion resistance. The modified Wilhelmy surface balance as described above was used. However, instead of using a Langmuir trough, a round Teflon dish (5.1 cm diameter) was employed. The subphase, 70 ml of 0.15M NaCl, was allowed to equilibrate to 37° C. in the incubator and was continuously stirred with a Teflon coated magnetic stirrer. An aliquot of the peptide/lipid fragment admixture containing 5 mg of total phospholipid was dispersed in 10 ml of 0.15M NaCl by vortexing for 10 seconds. This dispersion was then added to the saline subphase. Surface tension lowering was monitored using a strip chart recorder connected to the electro-balance output.

Series [2] is described as follows: Pulsating Bubble Surfactometer (PBS) surface tension. The following applies: after 5 minutes pulsation (100 cycles); 1 mg/ml phospholipid, peptide 2% of phospholipids; 0.15M NaCl; 37° C.; 20 cycles/minute; SD in parenthesis. As to the method:
as §1
The PBS equipment (Electronetics, Buffalo, N.Y.) used was essentially equivalent to that described in detail by G. Enhorning, J. Appld. Physiol. 43, 198-203, (1977). Recordings were made of the pressure gradient across the wall of a small air bubble, communicating with ambient air by means of a narrow chimney stack, but otherwise entirely surrounded by a 40 ul volume of the peptide/lipid admixture. The admixture concentration employed for these studies was 1 mg/ml total phospholipid (0.02 mg/ml total peptide) and the diluent was 0.15M NaCl.
Immediately prior to loading the sample chamber, the diluted samples were sonicated for 15 seconds to remove any gas nuclei.
The pressure drop across the air-water interface was measured during pulsation by a pressure transducer, and the corresponding surface tension was determined at minimum and maximum bubble size through the application of Young's law and the Laplace equation. Measurements were all made at 37° C. and the bubble pulsed at 20 cycles/minute to render respectively a maximum (1.1 mm) and a minimum (0.8 mm) bubble diameter. (This compression/expansion corresponds to a 50% change in the surface area of the air-water interface).

The nature of series [3]: Relative surface activity by dilution studies on the modified Wilhelmy Balance-Langmuir Trough. The conditions noted are these: for Mean Minimum Surface Tension, relative peptide concentration 1/2: 1/2 dilution of equimolar stock with lipid mixture; for Mean Minimum Surface Tension, relative peptide concentration 1/2 / Mean Minimum Surface Tension, relative peptide concentration 1/4 / Mean Minimum Surface Tension, relative peptide concentration 1/8 / Mean Minimum Surface Tension, relative peptide concentration 1/16 / Mean Minimum Surface Tension, relative peptide concentration Equimolar / Mean Minimum Surface Tension, relative peptide concentration 2%: 675 ug phospholipid; for Mean Minimum Surface Tension, relative peptide concentration 1/4: 1/4 dilution of equimolar stock with lipid mixture; for Mean Minimum Surface Tension, relative peptide concentration 1/8: 1/8 dilution of equimolar stock with lipid mixture; for Mean Minimum Surface Tension, relative peptide concentration 1/16: 1/16 dilution of equimolar stock with lipid mixture; for Mean Minimum Surface Tension, relative peptide concentration Equimolar: equimolar to 0.5 mg/mL SP-B(53-78); for Mean Minimum Surface Tension, relative peptide concentration Equimolar / Mean Minimum Surface Tension, relative peptide concentration 2%: 445 sq. cm trough; for Mean Minimum Surface Tension, relative peptide concentration 2%: peptide 2% of solids (0.5 mg/ml); for surface activity (in words): summary of Tables 3, 4 and 5. As to the method:
For the purpose of this comparison "surface activity" is defined as follows: For any given peptide concentration, the admixture is required to result in a minimum dynamic surface tension of less than 10 dynes/cm for each of seven consecutive expansion/compression cycles.
Initially each of the admixtures was formulated so as to contain an equal number of moles of the individual peptide as is contained in a 0.5 mg/mL admixture of SP-B(53-78). […] Thereafter, each of these admixtures was diluted with the standard lipid mixture as described in Example 4, so as to provide doubling dilutions of the equimolar "parent" stock peptide admixture. The lipid concentration in all cases was maintained at 25 mg/ml.
Assessment of relative surface activity was conducted on the modified Wilhemy-Langmuir Surface Balance. For these studies a standard volume of 27 ul of each admixture, corresponding to a total phospholipid mass of 675 ug, was applied to the Langmuir Trough with maximum dimensions of 445 sq. cm.

Series [4] in a line: Dynamic surface tension versus compressed surface area, modified Wilhelmy Surface Balance (Langmuir Trough). The following applies: peptide 0.5 mg/ml (~2% of solids) in DPPC:PG:PA 68:22:9; 675 ug phospholipid on 445 sq. cm trough; recorded during seven complete cycles. The protocol: as §1
The dynamic surface tension lowering properties of the peptide/lipid admixtures were studied using a modified Wilhelmy Surface Balance (Langmuir Trough). The instrument consists of an all Teflon trough and movable Teflon ribbon (dam) barrier system which completely contains and defines a variable surface area. Surface area was varied through the use of a constant rate reversible 3-phase motor to drive the Teflon barrier. A Cahn 2000 electrobalance (Cahn Instruments, Cerittos, Calif.) with a sandblasted 1 cm platinum plate and stainless steel hangdown wire was employed to determine the surface tension at the liquid-air interface. The entire apparatus was situated in a thermostated incubator set at 45° C. Surface area-surface tension measurements were made by adding 950 ml of 0.15M NaCl to the trough. Subphase temperature was controlled during the measurements at 36°-38° C.
For each experiment 27 ul of peptide/lipid admixture was applied in a random array of 13 droplets to the surface of the temperature controlled subphase and allowed to spread spontaneously for 3 minutes. (The 27 ul application corresponds to 675 ug of phospholipid). The trough surface area was then cycled from a maximum (445 sq. cm) to a minimum (178 sq. cm) surface area and back to maximum at a cycling rate of 3 cycles/min (compression ratio 2.5:1). The dynamic surface tension versus surface area was recorded for 7 complete compression-expansion cycles for each application.

In the case of “SP-B(53-78): replica of the 26 residue carboxyl terminal region of native human SP-B (YSVILLDTLLGRMLPQLVCRLVLRCS; Pulmonary surfactant-associated protein B; UniProt P07988 253-278, looked up, fragment)”, the “Adsorption (equilibrium adsorption surface tension)” value (“Adsorption” for short) in series [1] came out at 47.0 dynes/cm. Further, in series [2], the “Surface tension Maximum (maximum bubble size)” value is recorded as 56.7 (2.9) dyne/cm and the “Surface tension Minimum (minimum bubble size)” value is on record as 1.5 (0.6) dyne/cm. For the same substance, in series [3], the “Mean Minimum Surface Tension, relative peptide concentration 1/2” value was found to be 0.6 mN/m; the “Mean Minimum Surface Tension, relative peptide concentration 1/4” value was 0.5 mN/m; the “Mean Minimum Surface Tension, relative peptide concentration 1/8” value came out at 2.0 mN/m; the “Mean Minimum Surface Tension, relative peptide concentration 1/16” value is 14.5 mN/m. In series [3], the “Mean Minimum Surface Tension, relative peptide concentration Equimolar” value is reported as 0.7 mN/m and the “Mean Minimum Surface Tension, relative peptide concentration 2%” value amounted to 0.1 mN/m. Besides, in series [4], the “Surface Tension Maximum” value is given as 50.4 dynes/cm and the “Surface Tension Minimum” value was found to be 1.1 dynes/cm.
Regarding “SP-B(53-78)diAcm: SP-B positions 53-78, cysteines 71 and 77 capped with S-acetamidomethyl (Acm) groups (YSVILLDTLLGRMLPQLVC(Acm)RLVLRC(Acm)S; UniProt P07988 253-278, looked up, fragment)”, the “Adsorption” value in series [1] is recorded as 47.0 dynes/cm. In series [2], the “Surface tension Maximum (maximum bubble size)” value was 54.1 (2.6) dyne/cm and the “Surface tension Minimum (minimum bubble size)” value is recorded as 4.1 (3.1) dyne/cm. In series [3], the “Mean Minimum Surface Tension, relative peptide concentration 2%” value was 0.1 mN/m and the “surface activity (in words)” value is on record as “unusual surface activity”. In series [4], the “Surface Tension Maximum” value was 49.5 dynes/cm and the “Surface Tension Minimum” value was 0.1 dynes/cm.
Consider “SP-B(58-78)diAla: SP-B positions 58-78, cysteines 71 and 77 replaced by alanine (LDTLLGRMLPQLVARLVLRAS; Pulmonary surfactant-associated protein B; UniProt P07988 258-278, looked up, variant C71A C77A)”, for which, in series [1], the “Adsorption” value was 39.7 dynes/cm. In addition, in series [2], the “Surface tension Maximum (maximum bubble size)” value is 52.0 (3.3) dyne/cm and the “Surface tension Minimum (minimum bubble size)” value is listed as 7.5 (1.2) dyne/cm. In addition, in series [3], the “Mean Minimum Surface Tension, relative peptide concentration 1/2” value was 0.3 mN/m; the “Mean Minimum Surface Tension, relative peptide concentration 1/4” value turned out to be 1.5 mN/m; the “Mean Minimum Surface Tension, relative peptide concentration 1/8” value was 4.7 mN/m; the “Mean Minimum Surface Tension, relative peptide concentration 1/16” value worked out at 24.1 mN/m. In series [3], the “Mean Minimum Surface Tension, relative peptide concentration Equimolar” value was determined as 0.0 mN/m; the “Mean Minimum Surface Tension, relative peptide concentration 2%” value is listed as 0.2 mN/m; the “surface activity (in words)” value is recorded as “unusual surface activity”. In addition, in series [4], the “Surface Tension Maximum” value is 57.0 dynes/cm and the “Surface Tension Minimum” value is on record as 0.2 dynes/cm.
In the case of “SP-B(66-78): synthesized SP-B peptide fragment, positions 66-78, 13 amino acids (LPQLVCRLVLRCS; not fully specified; cysteine pairing not given here; UniProt P07988 266-278, looked up, fragment)”, the “Adsorption” value in series [1] is given as 47.5 dynes/cm. In addition, in series [2], the “Surface tension Maximum (maximum bubble size)” value is 61.5 (5.4) dyne/cm and the “Surface tension Minimum (minimum bubble size)” value was 9.4 (1.4) dyne/cm. Moreover, in series [3], the “Mean Minimum Surface Tension, relative peptide concentration 1/2” value turned out to be 2.8 mN/m; the “Mean Minimum Surface Tension, relative peptide concentration 1/4” value came to 6.7 mN/m; the “Mean Minimum Surface Tension, relative peptide concentration 1/8” value was 14.9 mN/m; the “Mean Minimum Surface Tension, relative peptide concentration 1/16” value stood at 22.0 mN/m. In series [3], the “Mean Minimum Surface Tension, relative peptide concentration Equimolar” value was 0.6 mN/m and the “Mean Minimum Surface Tension, relative peptide concentration 2%” value worked out at 0.7 mN/m. Moreover, in series [4], the “Surface Tension Maximum” value is 50.7 dynes/cm and the “Surface Tension Minimum” value is 0.7 dynes/cm.
In the case of “SP-B(66-78)diLys: SP-B positions 66-78, cysteines 71 and 77 replaced with lysine (LPQLVKRLVLRKS; Pulmonary surfactant-associated protein B; UniProt P07988 266-278, looked up, variant C71K C77K)”, the “Adsorption” value in series [1] was 48.9 dynes/cm. For the same substance, in series [2], the “Surface tension Maximum (maximum bubble size)” value is listed as 55.1 (6.6) dyne/cm and the “Surface tension Minimum (minimum bubble size)” value is 1.8 (0.5) dyne/cm. Also, in series [3], the “Mean Minimum Surface Tension, relative peptide concentration 1/2” value was determined as 8.2 mN/m; the “Mean Minimum Surface Tension, relative peptide concentration 1/4” value was 7.0 mN/m; the “Mean Minimum Surface Tension, relative peptide concentration 1/8” value came out at 15.0 mN/m; the “Mean Minimum Surface Tension, relative peptide concentration 1/16” value was 23.0 mN/m. In series [3], the “Mean Minimum Surface Tension, relative peptide concentration Equimolar” value stood at 2.5 mN/m and the “Mean Minimum Surface Tension, relative peptide concentration 2%” value came out at 2.6 mN/m. Besides, in series [4], the “Surface Tension Maximum” value worked out at 56.5 dynes/cm and the “Surface Tension Minimum” value came to 2.6 dynes/cm.
With “SP-B(69-78): synthesized SP-B peptide fragment, positions 69-78, 10 amino acids (LVCRLVLRCS; Pulmonary surfactant-associated protein B; UniProt P07988 269-278, looked up, fragment)”, the “Adsorption” value in series [1] is on record as 56.5 dynes/cm. Besides, in series [2], the “Surface tension Maximum (maximum bubble size)” value is given as 64.0 (5.0) dyne/cm and the “Surface tension Minimum (minimum bubble size)” value is 27.3 (0.5) dyne/cm. Besides, in series [3], the “Mean Minimum Surface Tension, relative peptide concentration 1/2” value is given as 12.5 mN/m; the “Mean Minimum Surface Tension, relative peptide concentration 1/4” value is recorded as 13.8 mN/m; the “Mean Minimum Surface Tension, relative peptide concentration 1/8” value is listed as 12.2 mN/m; the “Mean Minimum Surface Tension, relative peptide concentration Equimolar” value amounted to 13.3 mN/m. Moreover, the “Mean Minimum Surface Tension, relative peptide concentration 2%” value in series [3] stood at 6.3 mN/m. In addition, in series [4], the “Surface Tension Maximum” value was 65.0 dynes/cm and the “Surface Tension Minimum” value came to 6.3 dynes/cm.
